Source: article PMC11018817, “Reciprocal antagonism of PIN1-APC/C^CDH1 governs mitotic protein stability and cell cycle entry” (Nature Communications, 2024)
Square brackets hold non-standard residues; d marks the D form. Ends that are not written are not given here. Pro(13C,15N) = 13C, 15N isotope-labelled Pro; pS = N[C@@H](COP(=O)(O)O)C(=O)O

Biological target: T1, 13C, 15N-enriched PIN1 (NMR sample) (human, UniProt Q13526 1-163, 13C, 15N-enriched)
T1 construct: PIN1, human; resonances of both the WW and the PPIase domain were followed; also called 15N-labeled PIN1
Assay: NMR titration; series of 2D HSQC spectra of 0.1 mM 13C, 15N-enriched PIN1 titrated with the CDH1 phosphopeptide; 25 °C, pH 6.6, 20 mM potassium phosphate, 100 mM NaSO4, 10% D2O; chemical shift perturbation
Conditions: both partners purified

T1 sequence (Q13526 whole entry, the tested form may be a part): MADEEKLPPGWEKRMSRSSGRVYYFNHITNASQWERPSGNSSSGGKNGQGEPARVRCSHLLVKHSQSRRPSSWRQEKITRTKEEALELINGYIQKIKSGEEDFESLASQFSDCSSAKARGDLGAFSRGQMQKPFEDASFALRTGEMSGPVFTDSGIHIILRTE

binding result: binds
B1: CDH1-pS163 peptide (peptide)
peptide: LR[pS][Pro(13C,15N)]RKPTRKISKIPFKVLDAPE
notes: CDH1 (FZR1), human, residues 161-183; also called CDH1 phosphopeptide; phosphorylated peptide; source: synthetic peptide, bought: Pepmic
